# Experimental data published in publication PMC10720262 (2023).
# Positions count from the first letter of the chain named.
# B1: CL-460369 (antibody, V domains shown)
# VH: QVQLVESGGGVVQPGRSLRLSCAASGFTFSNYGMHWVRQAPGKGLEWVGIIWYDGSNKYYIDSVKGRFTISRDNSRNTLYLQINSLRAEDTAVYYCARDGGWNDDYYYVMDVWGQGTTVTVSS
# VL: DIVMTQSPDSLAVSLGEGATINCKSSQSVLYSSNNKNYLAWYQQKPGQPPKVLIYWASIRESGVPDRFSGSGSGTDFTLTISSLQAEDVAVYYCQQYYSMCSFGQGTKLEIK
# modifications: peptides N-terminally acetylated and C-terminally amidated
# B2: CL-510458 (antibody, V domains shown)
# VH: QVQLVESGGGVVQPGRSLRLSCAASGFTFNNYGMHWVRQAPGKGLEWVAVIWYDGSNKFHADSVKGRFTISRDNSKNTLYLQMNSLRAEDTALYYCARVYYYDSGSYLDYWGQGTLVTVSS
# VL: DIQMTQSPSSVSASVGDRVTITCRASQGISRWLAWYQQKPGKAPKLLIYAASSLQSGVPSRFSGSGSGTDFTLTISSLQPEDFATYCCQQANNFPWTFGQGTKVEIK
# modifications: peptides N-terminally acetylated and C-terminally amidated
# B3: CL-441816 (antibody, V domains shown)
# VH: QEQLVESGGGVVQPGRSLRLSCATSGFTFSTYGLHWVRQSPGKGLEWVTVIWYDGSNKFYADSVKGRFTISRDNSKNTLYLQMNSLRAEDTAVYYCARALYSSRWYGAFDIWGQGTMVTVSS
# VL: QSVLTQPPSVSGAPGQRVTISCTGSSSNIGAGYDVHWYQLLPGTAPKLLIYGNSNRPSGVPDRFSGSKSGTSASLAITGLQAEDEADYYCQSYIRSLSGSVFGGGTKLTVL
# modifications: peptides N-terminally acetylated and C-terminally amidated
# B4: CL-437092 (antibody, V domains shown)
# VH: QVQLVESGGGVVQPGGSLRLSCAASGFTLSSFGIHWVRQAPGKGLEWVALIWHDGSMKYYADSVKGRFTISRDNSKNTVDIQMNSLRVEDTAVYYCARPGIGSPGDHYTMDVWGHGTTVTVSS
# VL: not shown
# modifications: peptides N-terminally acetylated and C-terminally amidated
# B5: CL-514716 (antibody, V domains shown)
# VH: QIQLVESGGGVVQPGRSLRLSCAASGFTFSTYGMHWVRQAPGKGLEWVAVIWYDGSNKYYADSVQGRFTISRDNSKNTLYLQMNSLRAEDTAIYYCTTVGPIPFDYWGQGTLVTVSS
# VL: DIVMTQTPLSSPVILGQPASISCRSSQSLVHSSGNTYLSWLQQRPGQPPRLLIYKTFKRLSGVPDRFSGSGAGTDFTLKISRVEAEDVGVYYCLQSTQFPLTFGGGTKVEIK
# modifications: peptides N-terminally acetylated and C-terminally amidated
# B6: CL-512011 (antibody, V domains shown)
# VH: QVQLVESGGGVVQPGRSLRLSCVTSGFTFSSFGMHWVRQAPGKGLEWVALIWYDGSHKFYADSLTGRFTISRDNSKNTLYLQMNSLRVEDTAVYYCARAHAVTTANDKYGTDVWGQGTTVNVSP
# VL: DIQMTQSPSTLSASVGDRVTITCRASQSISSWLAWYQHKPGNAPKLLIYKASNLESGVPSRFSGSGSGTEFTLTISSLQPDDFATYFCQQYNSYWTFGQGTKVEVK
# modifications: peptides N-terminally acetylated and C-terminally amidated
# B7: CL-444653 (antibody, V domains shown)
# VH: QVQLVESGGGVVQPGRSLRLSCTASGFTFSTYGMHWVRQAPGKGLEWVAIIWYDGGNKFYADSVKGRFTISRDNSKDTLYLQMNSLRAEDTAVYYCAKAWYKVDDKYSMDVWGQGTTVTVSS
# VL: B6 VL with H38Q, N42K, N53S, S77G, F87Y, N92I, S93N, V105I
# modifications: peptides N-terminally acetylated and C-terminally amidated
# B8: CL-513617 (antibody, V domains shown)
# VH: QVQLVESGGGVVQPGRSLRLSCAASGFIFSNYGMYWVRQTPDKGLEWVALIWYDGGNKFYSDSVKGRFTVSRDNSKNTLYLQMNSLRDEDTALYYCARAGYFYGSGSSLDKWGQGTLVTVSS
# VL: B6 VL with T20S, S31I, H38Q, N42K, N53S, T72S, F87Y, S93R, V105I
# modifications: peptides N-terminally acetylated and C-terminally amidated
# B9: CL-510487 (antibody, V domains shown)
# VH: QVQLEESGGGVVQPGRSLRLSCTATGFTFSNYGMHWVRQAPGRGLEWVGVIWYDGSNKFYVDSVKGRFTISRDNSKNTLYLQMNSLRAEDTAVYYCARDGGYYGSGSYWWFDSWGQGTLVTVSS
# VL: B6 VL with H38Q, N42K, N53S, S56R, F87Y, S93R, W95C, T96S, V103L, V105I
# modifications: peptides N-terminally acetylated and C-terminally amidated
# B10: CL-464181 (antibody, V domains shown)
# VH: QVQLVESGGGAVQAGTSLRLSCAASGFSFSYNGMHWVRQGPGKGLEWVAIIWYDGGNKFYADSVKGRFTISRDNSKKMLYLQMNRLRAEDTAVYYCARAWNFADNKYSMDVWGQGTTVTVSA
# VL: B6 VL with S31C, H38Q, N42K, K45Q, N53S, F87Y, N92Y, S93I, E104D, V105I
# modifications: peptides N-terminally acetylated and C-terminally amidated
# B11: CL-512275 (antibody, V domains shown)
# VH: B6 VH with R16G, L18F, V23E, S31N, A101S, N121T
# VL: B6 VL with N42R, N53S, V58I, V105I
# modifications: peptides N-terminally acetylated and C-terminally amidated
# B12: Ky15.5 (antibody, V domains shown)
# VH: QVQMVASGGGVVQPGRSLRLSCAVSGFTFRNFGMHWVRQDPGRGLEWVAIIWYDGSYEFYADSVKGRFTISRDNSKNTLYLQMNSLRAEDTAVYYCARSYGSLTGDETKYGMDVWGQGTTVTVSS
# VL: B6 VL with Y36F, H38Q, N42K, N53S, F87Y, N92K, S93N, V105I
# modifications: peptides N-terminally acetylated and C-terminally amidated
# Target: PfCSP full length (Plasmodium falciparum (isolate NF54), UniProt P19597)
# Sequence (P19597 20-375): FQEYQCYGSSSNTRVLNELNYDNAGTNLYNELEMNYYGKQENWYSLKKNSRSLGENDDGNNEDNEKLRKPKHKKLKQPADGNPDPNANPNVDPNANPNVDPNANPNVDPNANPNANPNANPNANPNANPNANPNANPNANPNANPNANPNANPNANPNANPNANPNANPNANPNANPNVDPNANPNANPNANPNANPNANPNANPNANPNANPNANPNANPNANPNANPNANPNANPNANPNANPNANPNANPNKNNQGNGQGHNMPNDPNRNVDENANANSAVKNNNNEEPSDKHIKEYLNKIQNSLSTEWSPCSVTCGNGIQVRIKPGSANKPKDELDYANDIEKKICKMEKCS
# Experiment: ELISA AUC
row,Binder,binding score
1,B1,2.3
2,B2,2
3,B3,2.4
4,B4,2.5
5,B5,1.75
6,B6,2.5
7,B7,2.3
8,B8,2.59
9,B9,1.83
10,B10,2.4
11,B11,2.54
12,B12,2.4
